Measurements as given in article PMC5371411 (mBio, 2017).
Values joined by “and” are separate entries in the source; they are usually repeats but may differ in a detail not shown here. Identical values can stand only once.

Experiments:
[1] = molecular target: the molecule itself; test: SPR; His-EspA amine-coupled (EDC-NHS, 10 mM sodium acetate pH 4.0) to a planar polyethylene glycol/carboxyl sensor slide; analyte perfused in PBST at 50 µl/min; Reichert SR7500DC
EspC His-Middle segment = molecular target: T1, EspC His-Middle segment (enteropathogenic Escherichia coli (EPEC), UniProt Q9EZE7 382-708); test: as above; details: both partners purified
T1 construct: also called Middle fragment; source: E. coli BL21(D3)pLysS, pRSET-A, purified (Ni-NTA agarose); not shown: 6xHis, N-terminal, kept
T1 sequence: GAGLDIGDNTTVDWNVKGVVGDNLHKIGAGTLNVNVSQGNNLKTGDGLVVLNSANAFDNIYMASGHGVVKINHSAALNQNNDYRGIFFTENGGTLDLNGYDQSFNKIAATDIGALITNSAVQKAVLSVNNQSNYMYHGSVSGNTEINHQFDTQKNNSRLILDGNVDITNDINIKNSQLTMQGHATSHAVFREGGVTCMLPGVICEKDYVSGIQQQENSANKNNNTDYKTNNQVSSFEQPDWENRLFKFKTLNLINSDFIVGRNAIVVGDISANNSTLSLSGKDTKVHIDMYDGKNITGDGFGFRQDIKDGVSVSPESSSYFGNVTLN

EspCS256I = EspCS256I (enteropathogenic Escherichia coli (EPEC), UniProt Q9EZE7 54-1018, S256I); test: pull-down; details: both partners purified
His-EspC = molecular target: T2, His-EspC (enteropathogenic Escherichia coli (EPEC), UniProt Q9EZE7 55-1032); test: SPR; His-EspC coupled by its His tag and EDC-NHS on a nickel-nitrilotriacetic acid sensor slide; His-EspA or His-EspA/His-EspD perfused in PBST at 50 µl/min; Reichert SR7500DC; details: both partners purified
T2 construct: also called whole EspC passenger domain tagged with 6xHis; whole EspC protein (SPR); source: E. coli BL21(D3)pLysS, pRSET-A, purified (Ni-NTA agarose); not shown: 6xHis, N-terminal, kept
T2 sequence: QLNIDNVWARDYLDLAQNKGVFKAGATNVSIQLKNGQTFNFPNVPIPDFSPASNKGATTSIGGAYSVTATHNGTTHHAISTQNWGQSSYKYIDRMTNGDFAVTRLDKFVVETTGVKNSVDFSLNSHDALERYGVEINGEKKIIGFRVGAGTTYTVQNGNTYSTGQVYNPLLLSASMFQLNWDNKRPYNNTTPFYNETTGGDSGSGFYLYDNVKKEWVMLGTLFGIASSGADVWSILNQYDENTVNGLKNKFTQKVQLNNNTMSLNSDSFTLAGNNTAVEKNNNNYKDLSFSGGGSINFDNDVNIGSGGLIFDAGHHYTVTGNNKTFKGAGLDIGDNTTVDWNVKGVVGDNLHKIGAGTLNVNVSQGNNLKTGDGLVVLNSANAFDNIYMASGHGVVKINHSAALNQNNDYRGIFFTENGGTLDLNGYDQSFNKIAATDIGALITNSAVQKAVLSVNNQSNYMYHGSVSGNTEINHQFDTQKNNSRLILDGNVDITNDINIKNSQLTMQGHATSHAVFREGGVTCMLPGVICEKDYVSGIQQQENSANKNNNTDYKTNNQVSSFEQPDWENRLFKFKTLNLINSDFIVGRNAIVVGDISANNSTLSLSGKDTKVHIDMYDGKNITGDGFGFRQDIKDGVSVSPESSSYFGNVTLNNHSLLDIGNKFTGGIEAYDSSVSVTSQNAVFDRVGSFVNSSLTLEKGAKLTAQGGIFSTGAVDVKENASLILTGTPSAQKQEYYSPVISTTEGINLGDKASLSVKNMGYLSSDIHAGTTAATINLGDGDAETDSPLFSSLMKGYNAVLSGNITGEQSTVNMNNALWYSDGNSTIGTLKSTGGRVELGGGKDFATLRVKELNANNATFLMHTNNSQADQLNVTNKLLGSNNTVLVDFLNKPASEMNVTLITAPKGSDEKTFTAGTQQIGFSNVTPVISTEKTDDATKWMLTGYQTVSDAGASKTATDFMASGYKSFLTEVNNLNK

B1: His-EspA (natural protein)
chain: MDTSTTASVASANASTSTSMAYDLGSMSKDDVIDLFNKLGVFQAAILMFAYMYQAQSDLSIAKFADMNEASKESTTAQKMANLVDAKIADVQSSSDKNAKAQLPDEVISYINDPRNDITISGIDNINAQLGAGDLQTVKAAISAKANNLTTTVNNSQLEIQQMSNTLNLLTSARSDMQSLQYRTISGISLGK
notes: also called EPEC secreted protein A
In the case of B1, the Kd [1] is reported as 2.64 nM, the Kd (EspC His-Middle segment) is reported as 3.45 nM and 3.43 nM and the binding result (EspCS256I) is reported as “binds”. It also gave a Kd (His-EspC) of 25.1 nM.
